Test: soluble on expression in E. coli; label from the status in PepcDB or PDB records

| Sequence | soluble on expression in E. coli |
| --- | --- |
| MSLKVGLKLLQTPKESMLFNIDSYKIIGIGISRGNEKYMKSTICVARNIFTNGILVGSFEGILGGRTARLCSYKFVDYFLNKVSNKVVQESIEESLISTFQRLNEKIKEKNLNDVSSGLVYVFYNKILYFAQCGSIKSYIISNSNIKEIGFDHCLSNNEMKKKIMQKGGLVDNNNMLNGVINVCKCIGESNYHNLLNTTPDITKIEYDDDFKFVLTASKSVWDVIDQNELQSIVINSAHIQPPGIANLIRNIALERNCKGNISVTILSLDSEGHHHHHH | soluble |
| FPSGSAQLSARLYLPAGTPQVAVVINGATGVPREYYQHFATWLAAERGIACLTYDYRDFGHSLRGPLAASTATMSDWALIDMPAAYAEMQRRYPDLPLWVIGHSVGGMLGPLQPGIEPIARMICVCSGLVHHSDHPWPYQALARLFWFGHAPLLVKTLGYLPGRRIGFGSDLPPGVYWEWRRWCTTPGAYLPEMGDRLPQADWSRSGAPVDMFAFEDDTTIPPNCVWRLADVYGETVRRHLLHPRAFGLREIGHLGAFARRNAALWPRLIA | not soluble |
| MGSDKIHHHHHHMGGIGLRRLGCGEAIQIGGDTRAGPVVQIESADHVQSGGDGKGLDTPSIGPDPKRVAVIGHHHVEGAIGVPVQIGKGLSGVHGIGMIQGFEYQFAARPLARRRAQRSDAVENGRHDAGIVDTQPGPPRQLVQPGHHFGAVVPPTARTIPGPGVHLVAIGGDDQRPLVARAAKQNKSAHSQKSVSSGLSARYNTTCVHRFHPVGAKHRKGYGTRLIMTAFDDREKAFEAKYRLDQEQEFKARIRRDKLLGLWAAEQMGISGDAAKTYALSVVDVEFDATDRDAGHKIVRDFIASGITLDEAAIRHQMAVLLEIAREQIVTEMGRP | not soluble |
| MSASSERELYEAWVELLSWMREYAQAKGVRFEKEADFPDFIYRMERPYDLPTTIMTASLSDGLGEPFLLADVSPRHAKLKRIGLRLPRAHIHLHAHYEPGKGLVTGKIPLTKERFFALADRAREALAFA | soluble |
| GHHHHHHAIAENLYFQSDLFETSQIEKLLESLENYQPAFPDALVRYYLAKSGFQTDDIRAERLVALAAQKFVADVANDALNHVKLRQQSQATSKKSKENEVILTVEDLSKALEEYGVHLKKPPYYVDSPVVGVGSANLKKRKTEQVTSVKPEEKSLEGKEVFKEEPKEEDKELTQEPENV | soluble |
| MARNNNQVKRDAAGRLFFLLDRQYRLVIQQVVALKPHVLAIAARQGMFVAKAYRFPVAAARHAWLLAALRKAGFSAAPAPMPIGRGGVVEAGGCYWLLTEYVAGARPISFAAWADAADGLHLLERYHTITANIASSKQEAMGLPRAQLYDKWRRRYEEFCRHLPVVETIMDKEDILFTLSWADYCLSTCREHAPELTADSAAIIHGDVASHNFLRTTTGQMYLIDYDAAALASPGLDYCQYANRLLPYIGWSYSTLARFAPLRRWLEKRWFLHALLFPADVFREWRSAAARRRPLVFDRKRRERFVRRLYAMLQ | not soluble |
| MGSDKIHHHHHHMVIKEFNSLNTELVREIEKLTETCGKFDGIQEEVNLDDGFNFNKSMKWLFVLYEKDKVVSVVSIFAPKEEEGEISACTLPEYRRKGYFKELLSKAKNELLKYNVPKILFVCPKGSKQGEAVIKNSDAIYKFAEYTMNFNKNKFKAKGKYITKLAEANYNDLNKITKVASDVYSESYEQANSMMKNALESSDRLQFKLKLKEDYIGVVAAYFYHDKVSIFGVGILPEYRGRGFGREMMSMLLEYLIERDYDDIALEVDSNNKRAFELYKSIGFQIEREIDYYEEKINNTFYSY | not soluble |
| MSNARIGIDMSKIYAPKSIDLSSFQLPDEKLQTKYGLPHKVEFCKSCVISNQRPNSAVEYEHKKESKKHTIHFDDEGICDACRVAERKKSTINWEERDRQLRELCDRFRSKDGSYDCVVPGSGGKDSFYAAHILKYKYGMNPLTVTWAPHMYTPWGWRNFQSWIHAGFDNHLFTPNGRVHRLLTRLAVENLFHPFQPFMIGQKAYAPKMALLHKIKLVVYGENEAEYGNPIGDTESAKRDWKYFTADDKSKIFLGGTSVQELKSDFGLNDNDLDAYLPADPQQIEEQQVEVHYLGYYLKWHPQSCYYYSVEHGGFEASPERTPGTYSKYNSIDDKIDDFHYYTTLTKFGIGRATYDASQEIRSGDITVEEGVALVKRFDQEFPERFAEEIFKYLSINLKEFPIASQMFEQPIMDRAYFMALADTFRSPHLWKKDGEQWKLRHQVTNLEKTKAEYLDLETV | not soluble |
